Measurements published in patent US20210163584A1 (Sanofi, published 2021).
Like-named read-outs stand apart in the source and are kept apart here.

Tests used:
TGF-β1 [1] = target: T1, TGF-β1 (UniProt P01137 279-390); experiment: SPR (Biacore); amine-coupled TGF-β1 on chip, antibody as analyte, kinetic fit
T1 construct: also called transforming growth factor-beta 1
Excerpt: Recombinant mAb1-D10 fusion variants of Example 7 were also quantitatively assessed for TGF-β1 binding using surface plasmon resonance (SPR) as detected by Biacore. Samples containing purified variants were passed over a sensor chip with amine-coupled TGF-β1 to determine the equilibrium constant, KD. A target immobilization level of less than 100 response units (RU) of TGF-β1 was chosen to minimize the potential for avidity effects arising from binding adjacent TGF-β1 molecules on the chip. The level of immobilization was determined by the change in response units after NHS/EDC activation of the chip surface, but before quenching with ethanolamine. The fusion variants, WT fusion variant F1, and mAb1 control were diluted to 30, 10, 3, 1 and 0.37 nM in HBS-EP buffer and passed over the TGF-β1 chip at 30 μL/min for 3 min, followed by 5 min dissociation in the same buffer. Between runs, the chip surface was regenerated to remove any bound antibody by passing two 30 sec injections of 40 mM HCl over the chip at a flow rate of 75 μL/min. […] Unexpectedly, the maximum signal (RU) elicited by the fusion variants decreased with increasing number of peptides, with variant F17 (D10-HC-D10/D10-LC, PAR=6) showing the lowest signal. […] A possible explanation of this decline may reflect electrostatic repulsion between the chip matrix (carboxymethyl dextran) and the negatively charged D10 peptides.

TGF-β1 [2] = target: T1, TGF-β1; experiment: cell-based or functional assay
TGF-β1 [3] = target: T1, TGF-β1; experiment: cell-based or functional assay; remark: listed apart in the source

T1 sequence (P01137 279-390 limits assumed): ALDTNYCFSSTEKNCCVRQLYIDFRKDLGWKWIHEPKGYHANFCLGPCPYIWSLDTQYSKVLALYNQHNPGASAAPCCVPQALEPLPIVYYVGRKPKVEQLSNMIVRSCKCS

B1: mAb1 F1 (antibody, mouse IgG1, kappa)
heavy: HVQLQQSGPELVRPGASVKLSCKASGYIFITYWMNWVKQRPGQGLEWIGQIFPASGSTNYNEMFEGKATLTVDTSSSTAYMQLSSLTSEDSAVYYCARGDGNYALDAMDYWGQGTSVTVSSAKTTPPSVYPLAPGSAAQTNSMVTLGCLVKGYFPEPVTVTWNSGSLSSGVHTFPAVLQSDLYTLSSSVTVPSSTWPSQTVTCNVAHPASSTKVDKKIVPRDCGCKPCICTVPEVSSVFIFPPKPKDVLTITLTPKVTCVVVDISKDDPEVQFSWFVDDVEVHTAQTKPREEQFNSTFRSVSELPIMHQDWLNGKEFKCRVNSAAFPAPIEKTISKTKGRPKAPQVYTIPPPKEQMAKDKVSLTCMITDFFPEDITVEWQWNGQPAENYKNTQPIMDTDGSYFVYSKLNVQKSNWEAGNTFTCSVLHEGLHNHHTEKSLSHSPGK
light: NIVLTQSPASLAVSLGQRATISCRASESVDSYGNSFMHWYQQKSGQPPKLLIYLASNLESGVPARFSGSGSRTDFTLTIDPVEADDAATYYCQQNNEDPLTFGAGTKLELKRADAAPTVSIFPPSSEQLTSGGASVVCFLNNFYPKDINVKWKIDGSERQNGVLNSWTDQDSKDSTYSMSSTLTLTKDEYERHNSYTCEATHKTSTSPIVKSFNRNEC
notes: Recombinant version of mAb1 without D10 peptide, mouse IgG1, PAR 0; also called Fusion 1; WT
Work on B1 yielded a Kd (TGF-β1 [1]) of 2.51 nM, a koff (TGF-β1 [1]) of 0.00085 s⁻¹ and a kon (TGF-β1 [1]) of 338000 M⁻¹ s⁻¹. For the same binder, the “IC50 (read off the curve); IL-11 release by A549 cells in response to TGF-β1” value (from here on “IC50 (read off the curve); IL-11 release”) (TGF-β1 [2]) was ~0.2 nM.

B2: mAb1 F2 (antibody, mouse IgG1, kappa)
heavy: HVQLQQSGPELVRPGASVKLSCKASGYIFITYWMNWVKQRPGQGLEWIGQIFPASGSTNYNEMFEGKATLTVDTSSSTAYMQLSSLTSEDSAVYYCARGDGNYALDAMDYWGQGTSVTVSSAKTTPPSVYPLAPGSAAQTNSMVTLGCLVKGYFPEPVTVTWNSGSLSSGVHTFPAVLQSDLYTLSSSVTVPSSTWPSQTVTCNVAHPASSTKVDKKIVPRDCGCKPCICTVPEVSSVFIFPPKPKDVLTITLTPKVTCVVVDISKDDPEVQFSWFVDDVEVHTAQTKPREEQFNSTFRSVSELPIMHQDWLNGKEFKCRVNSAAFPAPIEKTISKTKGRPKAPQVYTIPPPKEQMAKDKVSLTCMITDFFPEDITVEWQWNGQPAENYKNTQPIMDTDGSYFVYSKLNVQKSNWEAGNTFTCSVLHEGLHNHHTEKSLSHSPGK
light: DDDDDDDDDDNIVLTQSPASLAVSLGQRATISCRASESVDSYGNSFMHWYQQKSGQPPKLLIYLASNLESGVPARFSGSGSRTDFTLTIDPVEADDAATYYCQQNNEDPLTFGAGTKLELKRADAAPTVSIFPPSSEQLTSGGASVVCFLNNFYPKDINVKWKIDGSERQNGVLNSWTDQDSKDSTYSMSSTLTLTKDEYERHNSYTCEATHKTSTSPIVKSFNRNEC
notes: Mouse IgG1 fusion variant, PAR 2; also called WT-HC: D10-LC
Work on B2 yielded a Kd (TGF-β1 [1]) of 6.01 nM, a koff (TGF-β1 [1]) of 0.001 s⁻¹ and a kon (TGF-β1 [1]) of 166000 M⁻¹ s⁻¹. For the same binder, the “IC50 (read off the curve); IL-11 release” value (TGF-β1 [2]) was ~0.2 nM.

B3: mAb1 F6 (antibody, mouse IgG1, kappa)
heavy: HVQLQQSGPELVRPGASVKLSCKASGYIFITYWMNWVKQRPGQGLEWIGQIFPASGSTNYNEMFEGKATLTVDTSSSTAYMQLSSLTSEDSAVYYCARGDGNYALDAMDYWGQGTSVTVSSAKTTPPSVYPLAPGSAAQTNSMVTLGCLVKGYFPEPVTVTWNSGSLSSGVHTFPAVLQSDLYTLSSSVTVPSSTWPSQTVTCNVAHPASSTKVDKKIVPRDCGCKPCICTVPEVSSVFIFPPKPKDVLTITLTPKVTCVVVDISKDDPEVQFSWFVDDVEVHTAQTKPREEQFNSTFRSVSELPIMHQDWLNGKEFKCRVNSAAFPAPIEKTISKTKGRPKAPQVYTIPPPKEQMAKDKVSLTCMITDFFPEDITVEWQWNGQPAENYKNTQPIMDTDGSYFVYSKLNVQKSNWEAGNTFTCSVLHEGLHNHHTEKSLSHSPGKDDDDDDDDDD
light: NIVLTQSPASLAVSLGQRATISCRASESVDSYGNSFMHWYQQKSGQPPKLLIYLASNLESGVPARFSGSGSRTDFTLTIDPVEADDAATYYCQQNNEDPLTFGAGTKLELKRADAAPTVSIFPPSSEQLTSGGASVVCFLNNFYPKDINVKWKIDGSERQNGVLNSWTDQDSKDSTYSMSSTLTLTKDEYERHNSYTCEATHKTSTSPIVKSFNRNEC
notes: Mouse IgG1 fusion variant, PAR 2; also called HC-D10: WT-LC; mAb1-D10
B3 showed a Kd (TGF-β1 [1]) of 4.58 nM, a koff (TGF-β1 [1]) of 0.00084 s⁻¹ and a kon (TGF-β1 [1]) of 182000 M⁻¹ s⁻¹. The “IC50 (read off the curve); IL-11 release” value (TGF-β1 [2]) was ~0.2 nM.

B4: mAb1 F7 (antibody, mouse IgG1, kappa)
heavy: HVQLQQSGPELVRPGASVKLSCKASGYIFITYWMNWVKQRPGQGLEWIGQIFPASGSTNYNEMFEGKATLTVDTSSSTAYMQLSSLTSEDSAVYYCARGDGNYALDAMDYWGQGTSVTVSSAKTTPPSVYPLAPGSAAQTNSMVTLGCLVKGYFPEPVTVTWNSGSLSSGVHTFPAVLQSDLYTLSSSVTVPSSTWPSQTVTCNVAHPASSTKVDKKIVPRDCGCKPCICTVPEVSSVFIFPPKPKDVLTITLTPKVTCVVVDISKDDPEVQFSWFVDDVEVHTAQTKPREEQFNSTFRSVSELPIMHQDWLNGKEFKCRVNSAAFPAPIEKTISKTKGRPKAPQVYTIPPPKEQMAKDKVSLTCMITDFFPEDITVEWQWNGQPAENYKNTQPIMDTDGSYFVYSKLNVQKSNWEAGNTFTCSVLHEGLHNHHTEKSLSHSPGKDDDDDDDDDD
light: DDDDDDDDDDNIVLTQSPASLAVSLGQRATISCRASESVDSYGNSFMHWYQQKSGQPPKLLIYLASNLESGVPARFSGSGSRTDFTLTIDPVEADDAATYYCQQNNEDPLTFGAGTKLELKRADAAPTVSIFPPSSEQLTSGGASVVCFLNNFYPKDINVKWKIDGSERQNGVLNSWTDQDSKDSTYSMSSTLTLTKDEYERHNSYTCEATHKTSTSPIVKSFNRNEC
notes: Mouse IgG1 fusion variant, PAR 4; also called HC-D10: D10-LC
In the case of B4, the Kd (TGF-β1 [1]) is reported as 5.43 nM, the koff (TGF-β1 [1]) is reported as 0.00094 s⁻¹ and the kon (TGF-β1 [1]) is reported as 172000 M⁻¹ s⁻¹. For the same binder, the “IC50 (read off the curve); IL-11 release” value (TGF-β1 [2]) was ~0.08 nM.

B5: mAb1 F11 (antibody, mouse IgG1, kappa)
heavy: DDDDDDDDDDHVQLQQSGPELVRPGASVKLSCKASGYIFITYWMNWVKQRPGQGLEWIGQIFPASGSTNYNEMFEGKATLTVDTSSSTAYMQLSSLTSEDSAVYYCARGDGNYALDAMDYWGQGTSVTVSSAKTTPPSVYPLAPGSAAQTNSMVTLGCLVKGYFPEPVTVTWNSGSLSSGVHTFPAVLQSDLYTLSSSVTVPSSTWPSQTVTCNVAHPASSTKVDKKIVPRDCGCKPCICTVPEVSSVFIFPPKPKDVLTITLTPKVTCVVVDISKDDPEVQFSWFVDDVEVHTAQTKPREEQFNSTFRSVSELPIMHQDWLNGKEFKCRVNSAAFPAPIEKTISKTKGRPKAPQVYTIPPPKEQMAKDKVSLTCMITDFFPEDITVEWQWNGQPAENYKNTQPIMDTDGSYFVYSKLNVQKSNWEAGNTFTCSVLHEGLHNHHTEKSLSHSPGK
light: NIVLTQSPASLAVSLGQRATISCRASESVDSYGNSFMHWYQQKSGQPPKLLIYLASNLESGVPARFSGSGSRTDFTLTIDPVEADDAATYYCQQNNEDPLTFGAGTKLELKRADAAPTVSIFPPSSEQLTSGGASVVCFLNNFYPKDINVKWKIDGSERQNGVLNSWTDQDSKDSTYSMSSTLTLTKDEYERHNSYTCEATHKTSTSPIVKSFNRNEC
notes: Mouse IgG1 fusion variant, PAR 2; also called D10-HC: WT-LC
Binder B5 has a Kd (TGF-β1 [1]) of 5.62 nM, a koff (TGF-β1 [1]) of 0.00092 s⁻¹ and a kon (TGF-β1 [1]) of 164000 M⁻¹ s⁻¹. For the same binder, the “IC50 (read off the curve); IL-11 release” value (TGF-β1 [3]) was ~0.07 nM.

B6: mAb1 F12 (antibody, mouse IgG1, kappa)
heavy: DDDDDDDDDDHVQLQQSGPELVRPGASVKLSCKASGYIFITYWMNWVKQRPGQGLEWIGQIFPASGSTNYNEMFEGKATLTVDTSSSTAYMQLSSLTSEDSAVYYCARGDGNYALDAMDYWGQGTSVTVSSAKTTPPSVYPLAPGSAAQTNSMVTLGCLVKGYFPEPVTVTWNSGSLSSGVHTFPAVLQSDLYTLSSSVTVPSSTWPSQTVTCNVAHPASSTKVDKKIVPRDCGCKPCICTVPEVSSVFIFPPKPKDVLTITLTPKVTCVVVDISKDDPEVQFSWFVDDVEVHTAQTKPREEQFNSTFRSVSELPIMHQDWLNGKEFKCRVNSAAFPAPIEKTISKTKGRPKAPQVYTIPPPKEQMAKDKVSLTCMITDFFPEDITVEWQWNGQPAENYKNTQPIMDTDGSYFVYSKLNVQKSNWEAGNTFTCSVLHEGLHNHHTEKSLSHSPGK
light: DDDDDDDDDDNIVLTQSPASLAVSLGQRATISCRASESVDSYGNSFMHWYQQKSGQPPKLLIYLASNLESGVPARFSGSGSRTDFTLTIDPVEADDAATYYCQQNNEDPLTFGAGTKLELKRADAAPTVSIFPPSSEQLTSGGASVVCFLNNFYPKDINVKWKIDGSERQNGVLNSWTDQDSKDSTYSMSSTLTLTKDEYERHNSYTCEATHKTSTSPIVKSFNRNEC
notes: Mouse IgG1 fusion variant, PAR 4; also called D10-HC: D10-LC
In the case of B6, the Kd (TGF-β1 [1]) is reported as 5.41 nM, the koff (TGF-β1 [1]) is reported as 0.00093 s⁻¹ and the kon (TGF-β1 [1]) is reported as 171000 M⁻¹ s⁻¹. For the same binder, the “IC50 (read off the curve); IL-11 release” value (TGF-β1 [3]) was ~0.03 nM.

B7: mAb1 F16 (antibody, mouse IgG1, kappa)
heavy: DDDDDDDDDDHVQLQQSGPELVRPGASVKLSCKASGYIFITYWMNWVKQRPGQGLEWIGQIFPASGSTNYNEMFEGKATLTVDTSSSTAYMQLSSLTSEDSAVYYCARGDGNYALDAMDYWGQGTSVTVSSAKTTPPSVYPLAPGSAAQTNSMVTLGCLVKGYFPEPVTVTWNSGSLSSGVHTFPAVLQSDLYTLSSSVTVPSSTWPSQTVTCNVAHPASSTKVDKKIVPRDCGCKPCICTVPEVSSVFIFPPKPKDVLTITLTPKVTCVVVDISKDDPEVQFSWFVDDVEVHTAQTKPREEQFNSTFRSVSELPIMHQDWLNGKEFKCRVNSAAFPAPIEKTISKTKGRPKAPQVYTIPPPKEQMAKDKVSLTCMITDFFPEDITVEWQWNGQPAENYKNTQPIMDTDGSYFVYSKLNVQKSNWEAGNTFTCSVLHEGLHNHHTEKSLSHSPGKDDDDDDDDDD
light: NIVLTQSPASLAVSLGQRATISCRASESVDSYGNSFMHWYQQKSGQPPKLLIYLASNLESGVPARFSGSGSRTDFTLTIDPVEADDAATYYCQQNNEDPLTFGAGTKLELKRADAAPTVSIFPPSSEQLTSGGASVVCFLNNFYPKDINVKWKIDGSERQNGVLNSWTDQDSKDSTYSMSSTLTLTKDEYERHNSYTCEATHKTSTSPIVKSFNRNEC
notes: Mouse IgG1 fusion variant, PAR 4; also called D10-HC-D10: WT-LC
For B7, the Kd (TGF-β1 [1]) was 6.88 nM, the koff (TGF-β1 [1]) was 0.0011 s⁻¹ and the kon (TGF-β1 [1]) was 159000 M⁻¹ s⁻¹. The “IC50 (read off the curve); IL-11 release” value (TGF-β1 [3]) was ~0.02 nM.
